In PMC13544220, “Glycemic and bodyweight effects of GIPR coding variation reflect differences in surface expression and intrinsic functional impairment” (Science Advances, 2026):

Key:
Format in all cases: cell-based, human
[1] = test system: wild-type and variant SNAP-GIPR; test: Surface SNAP-GIPR expression (SNAP-tag labelling) in AD293 cells; conditions: for AD293 Surface: Fig S3E, mean; for Surface SNAP-GIPR expression: sheet Fig 1C;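 for all read-outs here: scaled to the experimental average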
Procedure: (§1) Twenty-four hours before the experiment, AD293 or INS-1 cells were reverse transfected with GIPR variant or wild-type plasmids using Lipofectamine 2000 in 96-well, clear-bottom, black microplates precoated with poly-D-lysine. All variants were tested in parallel on each occasion to control for transfection efficiency differences between experiments. Cells were then labeled using the cell-impermeant probe SNAP-Surface Alexa Fluor 647 (500 nM, New England Biolabs, USA) for 10 min at room temperature to label only surface GIPR. […] Several fields of view (FOVs) were acquired within each well using a 20X, 0.75–numerical aperture (NA) air objective. Surface GIPR fluorescence was quantified after flat-field correction using BaSiC ([72]) and segmenting using Phantast ([73]), which generates a mask based on the phase contrast images to demarcate cell versus noncell. Wide-field imaging of the surface-specific labeling achieved by SNAP-Surface probes means that surface expression can be established from whole-cell fluorescence, after subtracting nonspecific fluorescence from a separate well containing nontransfected cells processed in parallel from the same experiment. Data were normalized by dividing by the average specific signal across each experiment, or by the wild-type value, as indicated in the figure legends.

[2] = test system: wild-type and variant SNAP-GIPR; test: Single-concentration GIP cAMP response by HTRF in INS-1 cells; conditions: Fig S3E, mean
Procedure: (§2) All variants were tested in parallel on each occasion to control for transfection efficiency differences between experiments.

[3] = test system: wild-type and variant SNAP-GIPR; test: cADDis cAMP imaging in AD293 cells, ensemble, expression-matched and per decile; conditions: Fig S3F, cADDis, mean
Procedure: AD293 cells were reverse transfected with the GIPR variant or wild-type plasmids using Lipofectamine 2000 and cotransduced with the cADDis Green Up BacMam (10 μl per well, Montana Molecular, USA), in 96-well, poly-D-lysine–coated microplates. All variants were tested in parallel on each occasion to control for transfection efficiency differences between experiments. After 24 hours, cells were labeled using 500 nM SNAP-Surface Alexa Fluor 647 for 10 min at room temperature. Cells were washed three times and then imaged in KRBH buffer containing 6 mM glucose and 0.1% BSA. Imaging was performed at 37°C by wide-field microscopy using the same microscope as in the “Assessment of surface GIPR expression by SNAP-tag labeling in cell lines” section, with 9 FOVs for both cADDis and SNAP-Surface fluorescence acquired from each well using a 10X, 0.45 NA air objective. […] Flat-field correction was performed using BaSiC ([72]), drift correction was performed using SIFT, and a maximum intensity projection of the cADDis channel was used to segment individual cells. cAMP responses were determined by quantifying the cADDis fluorescence intensity for each cell at each time point. Nonviable cells or noncell objects were excluded according to criteria for allowable cell IBMX/FSK responses. […] The cADDis mask was then used to quantify the SNAP-Surface signal from each cell. Wild-type SNAP-Surface readings were split into deciles, and these deciles were subsequently used to categorize variant-transfected cells to match against the wild type. After trimming the top and bottom deciles, the mean was taken of each decile mean for surface expression level or cAMP response, which achieved matched expression levels by effectively applying an inverse weighting to counteract differences in cell number in each decile for different variants. Ensemble expression levels or cAMP responses were calculated without regard to deciles. Variant cADDis responses were also analyzed within their own surface expression deciles.

[4] = test system: wild-type and variant SNAP-GIPR; test: Single-concentration GIP cAMP response by HTRF in AD293 cells; conditions: Fig S3F, HTRF, mean;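 note: ratio to experiment-wide average response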
Procedure: as §2

[5] = test system: wild-type and variant SNAP-GIPR; test: Surface SNAP-GIPR expression (SNAP-tag labelling) in INS-1 cells; conditions: Fig 4G; Mean
Procedure: as §1

[6] = test system: wild-type and variant SNAP-GIPR; test: Constitutive and agonist-mediated internalization, reversible SNAP-tag labelling, INS-1 cells; design: key to Internalisation, GIP-only / Internalisation, Vehicle / Internalisation, +GIP: % internalization: residual fluorescence after Mesna vs pre-Mesna; conditions: Mean
Procedure: (§3) Twenty-four hours before the experiment, AD293 or INS-1 cells were reverse transfected with GIPR variant or wild-type plasmids using Lipofectamine 2000 in 96-well, clear-bottom, black microplates precoated with poly-D-lysine. All variants were tested in parallel on each occasion to control for transfection efficiency differences between experiments. […] Media were then removed, cells washed with PBS and then placed in TNE buffer (pH 8.6) for imaging. […] After 10 min, the well was reimaged again to detect remaining fluorescence from internalized GIPR. Images were analyzed as in the “Assessment of surface GIPR expression by SNAP-tag labeling in cell lines” section, with the residual specific fluorescence after Mesna treatment expressed relative to the pre-Mesna value to establish percentage internalization.

[7] = test system: wild-type and variant SNAP-GIPR; test: Constitutive and agonist-mediated internalization, reversible SNAP-tag labelling, AD293 cells; design: key to Internalisation, Vehicle / Internalisation, +GIP / Internalisation, GIP-only: % internalization: residual fluorescence after Mesna vs pre-Mesna; Surface expression: unit not given here; conditions: Mean
Procedure: as §3

B1: A268V (protein, UniProt P48546 22-466, looked up, variant A268V)
Gastric inhibitory …: RAETGSKGQTAGELYQRWERYRRECQETLAAAEPPSGLACNGSFDMYVCWDYAAPNATARASCPWYLPWHHHVAAGFVLRQCGSDGQWGLWRDHTQCENPEKNEAFLDQRLILERLQVMYTVGYSLSLATLLLALLILSLFRRLHCTRNYIHINLFTSFMLRAAAILSRDRLLPRPGPYLGDQALALWNQALAACRTAQIVTQYCVGANYTWLLVEGVYLHSLLVLVGGSEEGHFRYYLLLGWGAPVLFVIPWVIVRYLYENTQCWERNEVKAIWWIIRTPILMTILINFLIFIRILGILLSKLRTRQMRCRDYRLRLARSTLTLVPLLGVHEVVFAPVTEEQARGALRFAKLGFEIFLSSFQGFLVSVLYCFINKEVQSEIRRGWHHCRLRRSLGEEQRQLPERAFRALPSGSGPGEVPTSRGLSSGTLPGPGNEASRELESYC
[1]; column repeated, paired with cAMP 100 nM
  AD293 Surface: 1.382
[1]; paired with cAMP 100 pM
  AD293 Surface: 1.382
[1]; replicate 1
  Surface SNAP-GIPR expression: 1.352
[1]; replicate 2
  Surface SNAP-GIPR expression: 1.469
[1]; replicate 3
  Surface SNAP-GIPR expression: 1.684
[1]; replicate 4
  Surface SNAP-GIPR expression: 1.15
[1]; replicate 5
  Surface SNAP-GIPR expression: 1.545
[1]; replicate 6
  Surface SNAP-GIPR expression: 1.48
[1]; replicate 7
  Surface SNAP-GIPR expression: 1.735
[1]; replicate 8
  Surface SNAP-GIPR expression: 0.9896
[1]; replicate 9
  Surface SNAP-GIPR expression: 1.756
[1]; replicate 10
  Surface SNAP-GIPR expression: 1.344
[1]; replicate 11
  Surface SNAP-GIPR expression: 1.392
[1]; replicate 12
  Surface SNAP-GIPR expression: 1.329
[1]; replicate 13
  Surface SNAP-GIPR expression: 1.75
[1]; replicate 14
  Surface SNAP-GIPR expression: 1.057
[1]; replicate 15
  Surface SNAP-GIPR expression: 1.196
[1]; replicate 16
  Surface SNAP-GIPR expression: 1.17
[1]; replicate 17
  Surface SNAP-GIPR expression: 1.366
[1]; replicate 18
  Surface SNAP-GIPR expression: 1.286
[1]; replicate 19
  Surface SNAP-GIPR expression: 1.239
[1]; replicate 20
  Surface SNAP-GIPR expression: 1.203
[1]; replicate 21
  Surface SNAP-GIPR expression: 1.125
[1]; replicate 22
  Surface SNAP-GIPR expression: 1.189
[1]; replicate 23
  Surface SNAP-GIPR expression: 1.374
[1]; replicate 24
  Surface SNAP-GIPR expression: 1.314
[1]; replicate 25
  Surface SNAP-GIPR expression: 1.303
[1]; replicate 26
  Surface SNAP-GIPR expression: 1.296
[1]; replicate 27
  Surface SNAP-GIPR expression: 1.545
[1]; replicate 28
  Surface SNAP-GIPR expression: 1.175
[1]; replicate 29
  Surface SNAP-GIPR expression: 1.642
[1]; replicate 30
  Surface SNAP-GIPR expression: 1.674
[1]; replicate 31
  Surface SNAP-GIPR expression: 1.459
[1]; replicate 32
  Surface SNAP-GIPR expression: 1.555
[1]; replicate 33
  Surface SNAP-GIPR expression: 1.663
[1]; replicate 34
  Surface SNAP-GIPR expression: 1.328
[1]; replicate 35
  Surface SNAP-GIPR expression: 1.277
[1]; replicate 36
  Surface SNAP-GIPR expression: 1.382
[1]; replicate 37
  Surface SNAP-GIPR expression: 1.6
[1]; replicate 38
  Surface SNAP-GIPR expression: 1.461
[1]; replicate 39
  Surface SNAP-GIPR expression: 1.123
[1]; replicate 40
  Surface SNAP-GIPR expression: 1.335
[1]; replicate 41
  Surface SNAP-GIPR expression: 1.367
[2]
  INS-1 cAMP (100 nM): 1.343
[3]; AD293, 100 pM
  AD293 100 pM cADDis: 34.2441
[3]; AD293, 100 nM
  AD293 100 nM cADDis: 37.42
[4]; AD293, 100 pM
  AD293 100 pM HTRF: 2.332
[4]; AD293, 100 nM
  AD293 100 nM HTRF: 1.283
[5]
  Surface expression: 1.2654
[6]; Fig 4G, GIP 100 nM
  +GIP internalisation (100 nM): 0.6195
  GIP-specific internalisation (100 nM): 0.1687
[6]; Fig 4G
  Constitutive internalisation (100 nM): 0.4508
[6]; Fig S4C, INS-1
  Internalisation, +GIP: 51.1233
  Internalisation, GIP-only: 13.9983
  Internalisation, Vehicle: 37.125
[7]; Fig 4E, GIP 100 nM
  +GIP internalisation (100 nM): 0.7963
  GIP-specific internalisation (100 nM): 0.2682
[7]; Fig 4E
  Constitutive internalisation (100 nM): 0.5281
  Surface expression: 1.472
[7]; Fig S4C, AD293
  Internalisation, +GIP: 57.341
  Internalisation, GIP-only: 19.4051
  Internalisation, Vehicle: 37.9359
